We go through three substances from paper PMC5119889.

Assay [1] concerns the target α1A-tubulin (α-Tubulin-CT) 399-451 (UniProt Q71U36). The assay can be described thus: GST pull-down, anti-His blot. The conditions noted are these: sites S245.
The target of assay [2] is polymerized microtubules from Cos7 lysate. The experiment in a line: tubulin cosedimentation assay, band densitometry of immunoblots. The conditions noted are these: pre-cleared lysates of Cos7 cells expressing FLAG tagged GIV-WT or SD mutant; n = 3; parent: est. 0.90; read off a plot.

Take “GIV (Girdin) 1-440 (from UniProt Q3V6T2) His-GIV-NT WT phosphorylated by AMPK”: the “binding against the reference” value in assay [1] (reference: His-GIV-NT WT, not phosphorylated) was “gained”.

On to “GIV (Girdin) 1-440 (from UniProt Q3V6T2) S245A, AMPK-treated”, for which, in assay [1] (reference: wild type, AMPK-treated), the “binding against the reference” value is given as “lost”. For the substance “GIV-FLAG WT, full length human GIV (from UniProt Q3V6T2) S245D”, the other: Ratio of GIV (Pellet:Supernatant) in assay [2] amounted to 2.
